This is an account of results in publication PMC6498573, “Genomic analyses of aminoacyl tRNA synthetases from human-infecting helminths” (BMC Genomics, 2019).

Data set [1] deals with T1, Onchocerca volvulus prolyl tRNA synthetase (OvPRS) (Onchocerca volvulus, UniProt A0A2K6VID2).
T1 construct: OvPRS construct of 497 amino acids (279–775; 57 kDa), MBP-His tag removed by TEV
T1 sequence (A0A2K6VID2 279-775): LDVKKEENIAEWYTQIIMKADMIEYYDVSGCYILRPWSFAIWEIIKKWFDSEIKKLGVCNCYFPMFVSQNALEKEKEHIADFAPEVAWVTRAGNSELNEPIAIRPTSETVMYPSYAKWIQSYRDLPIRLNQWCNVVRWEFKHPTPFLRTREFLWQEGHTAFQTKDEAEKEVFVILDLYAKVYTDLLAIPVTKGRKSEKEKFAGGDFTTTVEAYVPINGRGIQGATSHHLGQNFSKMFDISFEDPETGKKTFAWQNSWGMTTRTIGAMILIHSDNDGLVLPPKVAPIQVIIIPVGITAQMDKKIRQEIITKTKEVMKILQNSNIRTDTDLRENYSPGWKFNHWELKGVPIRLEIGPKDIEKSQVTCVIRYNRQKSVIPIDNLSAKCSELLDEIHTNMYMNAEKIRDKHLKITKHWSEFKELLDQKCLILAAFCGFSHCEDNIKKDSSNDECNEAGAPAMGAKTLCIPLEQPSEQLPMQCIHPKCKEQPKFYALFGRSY
The data set is described as follows: malachite green aminoacylation assay with recombinant purified OvPRS ([…] proline, […] ATP, […] enzyme). It is filed as biochemical.

Substrate in data set [2]: Nc1ncnc2c1ncn2[C@@H]1O[C@H](COP(=O)(O)OP(=O)(O)OP(=O)(O)O)[C@@H](O)[C@H]1O
Nature of the data set: purified protein. It counts as biochemical, Onchocerca volvulus.

Substrate in data set [3]: O=C(O)[C@@H]1CCCN1
The data set is described as follows: purified protein. It is filed as biochemical, Onchocerca volvulus.

The term IC50 denotes the midpoint of a concentration-inhibition curve. Usually Km stands for the concentration of substrate that gives half-maximal velocity.

`O=C(CC1NCCCC1O)Cn1cnc2cc(Br)c(Cl)cc2c1=O` (stereo not drawn) [HF, halofuginone]: the IC50 in data set [1] was around 30 nM.

B1: Onchocerca volvulus prolyl tRNA synthetase (OvPRS) (Onchocerca volvulus) (protein)
chain: LDVKKEENIAEWYTQIIMKADMIEYYDVSGCYILRPWSFAIWEIIKKWFDSEIKKLGVCNCYFPMFVSQNALEKEKEHIADFAPEVAWVTRAGNSELNEPIAIRPTSETVMYPSYAKWIQSYRDLPIRLNQWCNVVRWEFKHPTPFLRTREFLWQEGHTAFQTKDEAEKEVFVILDLYAKVYTDLLAIPVTKGRKSEKEKFAGGDFTTTVEAYVPINGRGIQGATSHHLGQNFSKMFDISFEDPETGKKTFAWQNSWGMTTRTIGAMILIHSDNDGLVLPPKVAPIQVIIIPVGITAQMDKKIRQEIITKTKEVMKILQNSNIRTDTDLRENYSPGWKFNHWELKGVPIRLEIGPKDIEKSQVTCVIRYNRQKSVIPIDNLSAKCSELLDEIHTNMYMNAEKIRDKHLKITKHWSEFKELLDQKCLILAAFCGFSHCEDNIKKDSSNDECNEAGAPAMGAKTLCIPLEQPSEQLPMQCIHPKCKEQPKFYALFGRSY
notes: OvPRS construct of 497 amino acids (279–775; 57 kDa), MBP-His tag removed by TEV
Consider B1, for which the Km in data set [2] was 18.9 ± 2.2 µM; in data set [3], 24.17 ± 11 µM.
